Target: ReoM-His from the ΔprkA ΔmurZ strain LMPR29 (unphosphorylated at Thr-7) (L. monocytogenes) (UniProt B8DE07)
Test: cross-linking + pull-down

UniProt B8DE07, sequence (B8DE07 whole entry, stated change not applied): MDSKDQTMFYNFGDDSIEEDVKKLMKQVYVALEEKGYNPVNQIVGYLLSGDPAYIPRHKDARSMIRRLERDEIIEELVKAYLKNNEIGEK

B1: MurA (L. monocytogenes UDP-N-acetylglucosamine 1-carboxyvinyltransferase) (enzyme)
chain: MEKIIVRGGKQLNGSVKMEGAKNAVLPVIAATLLASKGTSVLKNVPNLSDVFTINEVLKYLNADVSFVNDEVTVDATGEITSDAPFEYVRKMRASIVVMGPLLARTGSARVALPGGCAIGSRPVDLHLKGFEAMGAVVKIENGYIEATAEKLVGAKVYLDFPSVGATQNIMMAATLAEGTTVIENVAREPEIVDLANFLNQMGARVIGAGTEVIRIEGVKELTATEHSIIPDRIEAGTFMIAAAITGGNVLIEDAVPEHISSLIAKLEEMGVQIIEEENGIRVIGPDKLKAVDVKTMPHPGFPTDMQSQMMVIQMLSEGTSIMTETVFENRFMHVEEMRRMNADMKIEGHSVIISGPAKLQGAEVAATDLRAAAALILAGLVADGYTQVTELKYLDRGYNNFHGKLQALGADVERVDDSKVDVTNLASLF
  fold MurA copurified, against the prkA+ strain: 3 fold
